Source: patent US20250170216A1 (Protagonist Therapeutics, Inc., priority 2022, published 2025)
Like-named read-outs stand apart in the source and are kept apart here. Each block holds one compound with its values, some of them ahead of it.

Key:
[1] = molecular target: T1, ferroportin fused to green fluorescent protein (Mus musculus, UniProt Q9JHI9); conditions: read-out: EC50 (loss of fluorescence); 24 hours incubation; Hep25 preparations; cited from earlier work
T1 construct: expressed in transfected cells
T1 sequence (Q9JHI9 1-570): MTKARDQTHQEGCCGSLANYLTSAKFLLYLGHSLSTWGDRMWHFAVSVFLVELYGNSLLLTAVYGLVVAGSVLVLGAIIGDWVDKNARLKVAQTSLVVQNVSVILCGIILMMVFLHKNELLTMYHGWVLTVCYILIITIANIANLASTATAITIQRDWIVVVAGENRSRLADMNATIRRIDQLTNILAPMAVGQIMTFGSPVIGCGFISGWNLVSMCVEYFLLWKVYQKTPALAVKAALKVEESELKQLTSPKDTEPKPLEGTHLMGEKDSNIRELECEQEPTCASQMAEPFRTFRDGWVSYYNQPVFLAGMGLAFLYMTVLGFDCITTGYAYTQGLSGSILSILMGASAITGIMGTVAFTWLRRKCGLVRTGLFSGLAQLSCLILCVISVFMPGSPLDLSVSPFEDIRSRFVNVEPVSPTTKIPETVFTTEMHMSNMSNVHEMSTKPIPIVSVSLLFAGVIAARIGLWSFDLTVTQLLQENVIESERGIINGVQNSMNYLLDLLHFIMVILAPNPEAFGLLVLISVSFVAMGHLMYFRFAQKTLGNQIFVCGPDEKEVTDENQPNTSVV

ferroportin [2] = molecular target: T2, ferroportin (Homo sapiens, UniProt Q9NP59); experiment: FPN activity assay: internalization of ferroportin-GFP in stably transfected HEK293 cells; type: cell-based; parameters: expressed in transfected cells
T2 sequence (Q9NP59 1-571): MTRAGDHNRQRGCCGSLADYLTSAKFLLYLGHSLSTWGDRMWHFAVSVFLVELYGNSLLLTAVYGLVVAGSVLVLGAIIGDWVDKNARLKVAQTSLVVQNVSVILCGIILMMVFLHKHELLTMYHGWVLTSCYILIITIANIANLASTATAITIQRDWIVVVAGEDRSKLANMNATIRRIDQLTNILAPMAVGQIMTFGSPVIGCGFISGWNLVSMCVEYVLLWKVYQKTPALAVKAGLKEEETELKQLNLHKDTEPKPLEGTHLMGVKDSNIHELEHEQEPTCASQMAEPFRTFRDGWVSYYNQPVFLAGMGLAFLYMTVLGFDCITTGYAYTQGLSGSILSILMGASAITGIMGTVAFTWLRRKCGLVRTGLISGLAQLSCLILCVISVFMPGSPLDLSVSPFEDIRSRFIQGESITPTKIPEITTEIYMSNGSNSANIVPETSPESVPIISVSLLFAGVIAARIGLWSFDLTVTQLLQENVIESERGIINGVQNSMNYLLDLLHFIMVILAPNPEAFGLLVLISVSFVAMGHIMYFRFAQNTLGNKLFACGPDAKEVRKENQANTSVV
Protocol: Peptide analogues were tested in vitro for induction of internalization of the human ferroportin protein. Following internalization, the ferroporin protein is degraded. The assay used (FPN activity assay) measures a decrease in fluorescence of the receptor. The cDNA encoding the human ferroportin (SLC40A1) was cloned from a cDNA clone from Origene (NM_014585). The DNA encoding the ferroportin was amplified by PCR using primers also encoding terminal restriction sites for subcloning, but without the termination codon. The ferroportin receptor was subcloned into a mammalian GFP expression vector containing a neomycin (G418) resistance marker in such that the reading frame of the ferroportin was fused in frame with the GFP protein. The fidelity of the DNA encoding the protein was confirmed by DNA sequencing. HEK293 cells were used for transfection of the ferroportin-GFP receptor expression plasmid. The cells were grown according to standard protocol in growth medium and transfected with the plasmids using Lipofectamine (manufacturer's protocol, Invitrogen). […] The EC50 of these reference compounds for ferroportin internalization/degradation was determined according to the FPN activity assay described above. […]

ferroportin [3] = molecular target: T2, ferroportin; experiment: T47D cell-based ferroportin internalization assay in presence of 0.5% mouse serum albumin (MSA); parameters: a human breast carcinoma adherent cell line which endogenously expresses ferroportin; host or cells: T47D; conditions: Table 1C
Protocol: The potency of the peptides in causing ferroportin internalization was evaluated in a T47D cell-based assay. […] In this internalization assay, the potency of the test peptides was evaluated in the presence of serum albumin, which is the main protein component in the blood. T47D cells were maintained in RPMI media (containing required amount of fetal bovine serum) and regularly sub-cultured. In preparation for the assay, the cells were seeded in 96-well plates at a density of 80-100 k cells per well in 100 ul volume and allowed to rest overnight. On the next day, test peptides were first prepared in dilution series (10-point series, starting concentration of ˜5 μM, typically 3-4×fold dilution steps), all with 0.5% mouse serum albumin (MSA purified from mouse serum; Sigma, A3139). The test peptide dilution series were allowed to incubate at room temperature for 30 min. Then the media was aspirated from the 96-well cell plate and test peptide dilution series were added. […] The Median Fluorescence Intensity (MFI) of the AF647-positive population was measured (after removing dead cells and non-singlets from the analysis). […] The IC50 potencies were calculated by using 4-parameter non-linear fitting function in Graphpad Prism, and the results are provided in Table 1C.

[4] = molecular target: human ferroportin (SLC40A1) fused in frame with GFP, stably expressed in HEK293 cells (human) (UniProt Q9NP59); experiment: cell-based or functional assay
[5] = molecular target: ferroportin endogenously expressed on T47D cells (HTB 133, ATCC) (human) (UniProt Q9NP59); experiment: cell-based or functional assay

Compound: CC[C@H](C)[C@@H]1NC(=O)[C@@H](NC(=O)[C@@H](NC(=O)[C@@H]2CCCN2C(=O)[C@H](Cc2ccccc2)NC(=O)[C@H](Cc2c[nH]cn2)NC(=O)[C@@H](NC(=O)[C@@H](N)CC(=O)O)[C@@H](C)O)[C@@H](C)CC)CSSC[C@@H](C(=O)N[C@@H](CCCCN)C(=O)N[C@H](C(=O)O)[C@@H](C)O)NC(=O)[C@@H]2CSSC[C@@H]3NC(=O)[C@@H]4CSSC[C@H](NC(=O)[C@H](Cc5ccccc5)NC1=O)C(=O)N[C@@H](CSSC[C@H](NC(=O)[C@H](CCCCN)NC(=O)[C@H](CO)NC(=O)[C@H](CCCNC(=N)N)NC(=O)[C@H](Cc1c[nH]cn1)NC3=O)C(=O)NCC(=O)N[C@@H](CCSC)C(=O)N2)C(=O)NCC(=O)N4 [Hepcidin, Hy-DTHFPIC(1)IFC(2)C(3)GC(2)C(4)HRSKC(3)GMC(4)C(1)KT-OH]
EC50 [1]: 5 to 15 nM

DC50 (ferroportin [2]; Table 6 reference compounds, read-out: Potency EC50): > 10000 nM
Compound: CC[C@@H](C)[C@@H](NC(=O)[C@H](N)Cc1ccccc1)C(=O)N[C@H](CS)C(=O)N[C@@H](C(=O)N1CCC[C@@H]1C(=O)N[C@H](Cc1ccccc1)C(=O)N[C@H](Cc1c[nH]cn1)C(=O)N[C@@H](C(=O)N[C@H](CC(=O)O)C(N)=O)[C@H](C)O)[C@H](C)CC [RI-Mini Hepcidin, Hy-DPhe-DIle-DCys-DIle-DPro-DPhe-DHis-DThr-DAsp-NH2]

DC50 (ferroportin [2]; Table 1C, FPN internalization assay, read-out: IC50: FPN): > 500 nM
IC50 (ferroportin [3]): 11 to 100 nM
Compound: CC[C@H](C)[C@@H]1NC(=O)[C@@H](NC(=O)[C@@H]2CCCN2C(=O)[C@@H](NC(=O)[C@H](Cc2cnc[nH]2)NC(=O)[C@@H](NC(=O)[C@H](CCC(=O)O)NC(=O)CC(C)C)[C@@H](C)O)C(c2ccccc2)c2ccccc2)CSSC(C)(C)[C@@H](C(N)=O)NC(=O)[C@@H](CCCCN)NC(=O)C[C@H](Cc2ccccc2)NC(=O)[C@H](CCCCNC(=O)CCOCCOCCOCCOCCOCCOCCOCCOCCOCCOCCOCCOCCNC(=O)CCCCCCCCCCC(=O)O)NC1=O [compound 4]

Potency EC50 (nM), FPN activity assay [4]: 34 nM
Compound: Hepcidin (peptide)

IC50: T47D MSA (nM), T47D internalization assay; *=>500 nM [5]: > 500 nM
IC50: FPN (nM), FPN internalization assay; *=IC50>500 nM [4]: > 500 nM
Compound: Isovaleric_Acid-E-C-H-DIP-P-C-I-dK-(NMe_Lys_AlbuTag)-dK-C-NH2-Trimethylbenzene (peptide)

IC50: T47D MSA (nM), T47D internalization assay; *=>500 nM [5]: > 500 nM
Compound: Isovaleric_Acid-E-C-H-DIP-P-C-I-dK-DIP-(NMe_Lys_AlbuTag)-dK-C-am-Trimethylbenzene (peptide)

IC50: FPN (nM), FPN internalization assay; *=IC50>500 nM [4]: > 500 nM
Compound: Isovaleric_Acid-E-T-H-DIP-P-C-I-[Lys_1PEG2_1PEG2_Ahx_C4_Diacid]-bhF-[dLys_PEG11_OMe]-C-NH2 (peptide)

IC50: T47D MSA (nM), T47D internalization assay; *=>500 nM [5]: > 500 nM
Compound: Isovaleric_Acid-E-T-H-DIP-P-C-I-[Lys_PEG12_C6_Diacid]-bhF-[dLys_PEG11_OMe]-Pen-NH2 (peptide)

IC50: FPN (nM), FPN internalization assay; *=IC50>500 nM [4]: > 500 nM
Compound: Isovaleric_Acid-E-T-H-DIP-P-C-I-[Lys_PEG12_C12_Diacid]-bhF-dK-Pen-NH2 (peptide)

IC50: T47D MSA (nM), T47D internalization assay; *=>500 nM [5]: > 500 nM
Compound: Isovaleric_Acid-E-T-H-DIP-P-C-I-dK-bhF-(Lys_Dap_C8_Diacid)-dK-C-NH2 (peptide)

IC50: T47D MSA (nM), T47D internalization assay; *=>500 nM [5]: > 500 nM
Compound: Isovaleric_Acid-E-hSer-H-DIP-P-C-I-[Lys_1PEG2_1PEG2_Ahx_C18_Diacid]-bhF-[dLys_PEG11_OMe]-C-NH2 (peptide)

Potency EC50 (nM), FPN activity assay [4]: 712 nM
Compound: Mini-Hepcidin 1-9 (peptide)

Potency EC50 (nM), FPN activity assay [4]: > 10000 nM
Compound: RI-Mini Hepcidin (peptide)
